Source: patent US20260042834A1, “ANTI-CORTICOTROPIN-RELEASING HORMONE ANTIBODIES AND POLYCYSTIC OVARY SYNDROME” (HBM ALPHA THERAPEUTICS, INC., priority 2022, published 2026)
Residue numbers refer to the chain shown, from its start. Read-outs that look alike come from different tables or passages of the source. Values belong to the molecule of their own block, whether it stands above or below them.

How the values were obtained:
[1] = test system: human CRHR2; assay: CRH-induced luciferase reporter blocking assay, CHO-CRE-hCRHR2 cells; assay type: cell-based; settings: CHO-CRE-hCRHR2 cells, 0.1 nM CRH
Summary of the method: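 CHO-CRE reporter cells stably expressing mouse or human CRHR2 were treated with serially diluted antibodies (8 points, 1:4) plus CRH at final 5 nM (mCRHR2) or 0.1 nM (hCRHR2), 4-6 hours at 37° C. CRE-driven luciferase read by luminescence after 10 min with detection reagent.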

[2] = test system: constitutively high plasma ACTH in Mrap1 KO mice; assay: Mrap1 KO mice constitutively high ACTH model; assay type: in vivo, mouse; settings: 20 mg/kg and 5 mg/kg, day 2 and day 16
Protocol: 8-10 week old wildtype female C57BL/6 mice were obtained from Charles River Laboratories. Mrap1 KO mice were obtained from Queen Mary University of London, UK. SSR125543A, a small molecule CRHR1 antagonist, was obtained from Axon Medchem (Cat #Axon 1799). Mouse Corticosterone (55-Corms-E01) and adrenocorticotropic hormone (ACTH) ELISA kits (21-ACTHU-E01) were obtained from ALPCO, USA. All procedures were carried out in accordance with the Guide for the Care and Use of Laboratory Animals of the National Institutes of Health. Protocols were approved by Charles River Laboratories Institutional Animal Care and Use Committee (IACUC).
To generate Mrap1 KO mice, Mrap1−/− male mice were bred with Mrap1+/− female mice. Corticosterone hormone replacement was performed by administering 50 μg/ml in drinking water to breeder cages when female mice were pregnant and their pregnancies palpable (approximately embryonic day 10). Drinking water was changed weekly, and treatment was stopped at weaning. Mice were uniquely identified with ear tags at the time of tail clipping to match future genotype with each mouse. DNA was extracted from tail tissue and used to genotype mice.
[…] On day 2 or 3, 14 and 28, 200 μl of blood was collected in EDTA tubes from the submandibular vein of each mouse. Plasma was separated using a refrigerated centrifuge (4° C. at 500×g for 10 min) and snap-frozen in dry ice for subsequent ACTH ELISA measurement.

[3] = test system: mouse CRHR2; assay: CRH-induced luciferase reporter blocking assay, CHO-CRE-mCRHR2 cells; assay type: cell-based; settings: CHO-CRE-mCRHR2 cells, 5 nM CRH
Summary of the method: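 CHO-CRE cells stably expressing mouse CRHR2 were seeded overnight, then given serially diluted antibodies (8 points, 1:4) together with CRH at 5 nM final. After 4–6 h at 37 °C, CRE-driven luciferase was read by Bio-Glo luminescence.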

[4] = target: T1, N-terminal region plus central region, central region only, central region plus C-terminal region of CRH (Homo sapiens, UniProt P06850); assay: ELISA determining the binding region of CRH; settings: dash = no binding
T1 construct: N-terminal region plus the central region (CT biotin), the central region only (NT biotin or CT biotin)
Protocol: Streptavidin (Thermo, Cat: 21125) was diluted in PBS to a concentration of 2 μg/ml. 100 μl of diluted streptavidin was added per well to ELISA microplates, and the plates were incubated overnight at 4° C. Plates were blocked with ELISA blocking solution (containing 2% w/v BSA, 0.05% (v/v) Tween-20, pH 7.4 PBS buffer) at 37° C. for 1 hour, and then incubated with 1 μg/mL N-terminal region plus the central region (CT biotin), the central region only (NT biotin or CT biotin), or the central region plus C-terminal region (NT biotin) of CRH for 1 hour at 37° C. Plates were then washed and incubated with diluted anti-CRH antibody (Ab) at 15 μg/ml (100 nM, 10 diluted, 8 points) for 1 hour at 37° C. Subsequently, plates were washed and incubated with HRP-conjugated goat anti-human IgG (H+L) antibody (Jackson, Cat: 109-035-088) at 37° C. for 1 hour. 100 μL of 3,3′,5,5′-tetramethylbenzidine (TMB) substrate (Biopanda, Cat: TMB-S-003) was added, and the plates were incubated at room temperature for 15 minutes. 100 μL of ELISA stopping solution (Solarbio, Cat #: C1058) was added to terminate the reaction, and the optical density at 450 nm (OD450 nm) was determined by an ELISA plate reader (Molecular Devices, Spectra max 384 plus).

[5] = target: T2, biotinylated CRH (Homo sapiens, UniProt P06850); assay: Affinity determination with Octet; assay type: binding
T2 construct: purchased GL Biochem 784751
T2 sequence (P06850 154-194): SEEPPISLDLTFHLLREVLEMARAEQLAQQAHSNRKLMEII
Protocol: Octet® Red 96e was used for affinity measurement. Octet® running buffer was prepared by diluting kinetics buffer 10× (Fortebio, Cat #18-1105) in PBS according to the manufacturer's instructions. Two columns of SA sensors (Fortebio, Cat #18-5019) were hydrated in running buffer for 10 mins, one for ligand capturing and the other for reference. Antibodies were 2-fold diluted and added into a 96-well plate. 30 nM biotinylated CRH (GL Biochem, Cat #784751) was captured by the first column of SA sensors for 20 seconds, while reference sensors were dipped into buffer wells. After a 60-second baseline step, sensors were dipped into analyte and buffer wells successively, with the association and dissociation time of 180 seconds and 800 seconds, respectively. Sensors were regenerated in glycine pH1.5 (Cytiva, Cat #BR-1003-54) before the next cycle. […] Signals of reference wells and reference sensors were subtracted by selecting “Double reference” before data fitting.

[6] = test system: human CRHR1 (hUCN1-induced); assay: Human UCN1-induced luciferase reporter assay, CHO-CRE-hCRHR1 cells; assay type: cell-based; settings: Table 10; 1 nM hUCN1
Protocol: CHO-CRE-hCRHR1 and CHO-CRE-hCRHR2 cells were harvested with trypsin-EDTA (Life Technologies, Cat #:12604-013). Cells were centrifuged at 1,000 rpm for 5 min and resuspended in growth medium. Cells were counted using a cell counter, seeded at 5,000 cells per 100 μl to 96-well flat plates, and incubated overnight. 50 μl of 4× serially diluted antibody (8 points, 1/3 diluted by growth medium) or CP 376395 hydrochloride (TOCRIS, Cat #:3212) (8 points, 1/10 diluted by growth medium) was added to plates, followed by 50 μl 4×hUCN1 (4× is 4 nM, final is 1 nM) to CHO-CRE-hCRHR1 cells or CHO-CRE-hCRHR2 cells. Plates were then incubated for 4-6 hours at 37° C. in a CO2 incubator. Following this, 60 μl of culture medium was removed, to which was added 60 μl of Bio-Glo luciferase, followed by incubation for 10 min at RT. Plates were then read in a luciferase plate reader (EnVision, PerkinElmer).

[7] = central plus C-terminal region CRH peptide, NT-biotin (SEQ ID NO: 483), read-out: ELISA EC50 C-Ter-CRH (NT-Bion)
[8] = central region CRH peptide, CT-biotin (SEQ ID NO: 485), read-out: ELISA EC50 Central-CRH (CT-Bion)
[9] = central region CRH peptide, NT-biotin (SEQ ID NO: 484), read-out: ELISA EC50 Central-CRH (NT-Bion)

IC50 [1]: 5.96 nM | IC50 [3]: 6.17 nM
B1: PR302038: humanized variant of Series 5 mAb PR301777; VH SEQ ID NO: 256, VL SEQ ID NO: 311 (antibody, V domains shown)
VH: EMQLVESGGGLVQPGGSLRLSCAASGFTFSNYWMNWVRQAPGKGLEWVAEIRLKSNNYATHYAESVKGRFTISRDDSKSSVYLQMNSLKTEDTAVYYCTVGTLVYWGQGTLVTVSS
VL: EIVLTQSPATLSLSPGERATLSCRASQSVSTSTYNYMHWFQQKPGQAPRLLIKFASNLESGIPARFSGSGSGTDFTLTISSLEPEDTAVYYCQHSWEIPYTFGQGTKLEIK
modifications: PR302036 VH, PR302038 VH, PR302041 VH; PR302031 VL, PR302038 VL, PR302045 VL, PR302052 VL, PR302066 VL
plasma ACTH concentrations in Mrap1 KO mice, dose dependence [2]: reduced plasma ACTH concentrations in Mrap1 KO mice, in a dose dependent manner

EC50 [4, 7]: > 100 nM | EC50 [4, 8]: > 100 nM | EC50 [4, 9]: > 100 nM | kdis [5]: 0.000136 s⁻¹ | kon [5]: 266000 M⁻¹ s⁻¹ | CHO-CRE-hCRHR1 1 nM hUCH1 IC50 [6]: No Inhibition
B2: PR302309-8: humanized variant of Series 7 mAb PR302309; VH SEQ ID NO: 261, VL SEQ ID NO: 318 (antibody, V domains shown)
VH: QIQLVQSGSELKKPGASVKVSCKASGYTFTNYGMNWVRQAPGQGLEWMGWINTYTGEPIYTDDFKGRFVFSLDTSVSTAYLQISSLKAEDTAVYYCSRSTMITTGGVFAYWGQGTLVTVSS
VL: DVVMTQSPLSLPVTLGQPASISCRSSQTIVHSDGNTYLEWYQQRPGQSPRLLIYKVSNRFSGVPDRFSGSGSGTDFTLKISRVEAEDLGVYYCFQGSHVPWTFGGGTKVEIK
modifications: PR302309-10 VH, PR302309-11 VH, PR302309-12 VH, PR302309-14 VH,PR302309-7 VH, PR302309-8 VH, PR302309-9 VH; PR302309-17 VL, PR302309-18 VL, PR302309-19 VL, PR302309-2 VL,PR302309-8 VL

EC50 [4, 7]: > 100 nM | EC50 [4, 8]: > 100 nM | EC50 [4, 9]: > 100 nM | kon [5]: 154000 M⁻¹ s⁻¹ | CHO-CRE-hCRHR1 1 nM hUCH1 IC50 [6]: No Inhibition
B3: PR302309-11: humanized variant of Series 7 mAb PR302309; VH SEQ ID NO: 261, VL SEQ ID NO: 315 (antibody, V domains shown)
VH: B2 VH
VL: B2 VL with V2I, S7T, L11S, Y41L, S48P, S72A, L88V
modifications: PR302309-10 VH, PR302309-11 VH, PR302309-12 VH, PR302309-14 VH,PR302309-7 VH, PR302309-8 VH, PR302309-9 VH; PR302309-11 VL, PR302309-5 VL
